Consider 42 variants from the Human Domainome abundance scans (Beltran et al. 2025).

B1: Double-stranded RNA-specific adenosine deaminase, residues 296 to 358; numbered along this chain, P55265 (parent)
chain: MAEIKEKICDYLFNVSDSSALNLAKNIGLTKARDINAVLIDMERQGDVYRQGTTPPIWHLTDK

± gives the uncertainty stated by the source.

This data set covers variants of B1. The data set can be described thus: abundance fitness (aPCA) (normalised: wild type 0, dead -1); higher = more abundant; growth selection in yeast, the domain comes from the species named. The settings on record: Homo sapiens.
Consider MAEIKEKICDYFFNVSDSSALNLAKNIGLTKARDINAVLIDMERQGDVYRQGTTPPIWHLTDK [L12F], for which the abundance fitness was -0.727 ± 0.3.
With MAEIKEKICDYAFNVSDSSALNLAKNIGLTKARDINAVLIDMERQGDVYRQGTTPPIWHLTDK [L12A], the abundance fitness was -0.481 ± 0.12.
In the case of MAEIKEKICDYHFNVSDSSALNLAKNIGLTKARDINAVLIDMERQGDVYRQGTTPPIWHLTDK [L12H], the abundance fitness is -0.46 ± 0.21.
As to MAEIKEKICDYMFNVSDSSALNLAKNIGLTKARDINAVLIDMERQGDVYRQGTTPPIWHLTDK [L12M], the abundance fitness is -0.82 ± 0.21.
For MAEIKEKICDYGFNVSDSSALNLAKNIGLTKARDINAVLIDMERQGDVYRQGTTPPIWHLTDK [L12G], the abundance fitness is -0.441 ± 0.09.
As to MAEIKEKICDYIFNVSDSSALNLAKNIGLTKARDINAVLIDMERQGDVYRQGTTPPIWHLTDK [L12I], the abundance fitness was -0.69 ± 0.42.
Consider MAEIKEKICDYWFNVSDSSALNLAKNIGLTKARDINAVLIDMERQGDVYRQGTTPPIWHLTDK [L12W], for which the abundance fitness was -1.01 ± 0.24.
As to MAEIKEKICDYYFNVSDSSALNLAKNIGLTKARDINAVLIDMERQGDVYRQGTTPPIWHLTDK [L12Y], the abundance fitness is -0.044 ± 0.29.
For the variant MAEIKEKICDYRFNVSDSSALNLAKNIGLTKARDINAVLIDMERQGDVYRQGTTPPIWHLTDK [L12R], the abundance fitness was -0.367 ± 0.085.
As to MAEIKEKICDYEFNVSDSSALNLAKNIGLTKARDINAVLIDMERQGDVYRQGTTPPIWHLTDK [L12E], the abundance fitness was -0.115 ± 0.098.
As to MAEIKEKICDYDFNVSDSSALNLAKNIGLTKARDINAVLIDMERQGDVYRQGTTPPIWHLTDK [L12D], the abundance fitness was -0.706 ± 0.34.
Turning to MAEIKEKICDYKFNVSDSSALNLAKNIGLTKARDINAVLIDMERQGDVYRQGTTPPIWHLTDK [L12K], the abundance fitness was -0.95 ± 0.23.
Regarding MAEIKEKICDYVFNVSDSSALNLAKNIGLTKARDINAVLIDMERQGDVYRQGTTPPIWHLTDK [L12V], the abundance fitness is -0.669 ± 0.078.
Regarding MAEIKEKICDYCFNVSDSSALNLAKNIGLTKARDINAVLIDMERQGDVYRQGTTPPIWHLTDK [L12C], the abundance fitness was -1.02 ± 0.3.
Turning to MAEIKEKICDYSFNVSDSSALNLAKNIGLTKARDINAVLIDMERQGDVYRQGTTPPIWHLTDK [L12S], the abundance fitness was -0.295 ± 0.096.
As to MAEIKEKICDYQFNVSDSSALNLAKNIGLTKARDINAVLIDMERQGDVYRQGTTPPIWHLTDK [L12Q], the abundance fitness is -0.512 ± 0.16.
Regarding MAEIKEKICDYTFNVSDSSALNLAKNIGLTKARDINAVLIDMERQGDVYRQGTTPPIWHLTDK [L12T], the abundance fitness was -0.99 ± 0.36.
As to MAEIKEKICDYLFFVSDSSALNLAKNIGLTKARDINAVLIDMERQGDVYRQGTTPPIWHLTDK [N14F], the abundance fitness was -0.385 ± 0.083.
With MAEIKEKICDYLFRVSDSSALNLAKNIGLTKARDINAVLIDMERQGDVYRQGTTPPIWHLTDK [N14R], the abundance fitness came to 0.285 ± 0.044.
Take MAEIKEKICDYLFMVSDSSALNLAKNIGLTKARDINAVLIDMERQGDVYRQGTTPPIWHLTDK [N14M]: the abundance fitness was -0.189 ± 0.068.
In the case of MAEIKEKICDYLFVVSDSSALNLAKNIGLTKARDINAVLIDMERQGDVYRQGTTPPIWHLTDK [N14V], the abundance fitness was -0.31 ± 0.034.
Turning to MAEIKEKICDYLFQVSDSSALNLAKNIGLTKARDINAVLIDMERQGDVYRQGTTPPIWHLTDK [N14Q], the abundance fitness stood at 0.008 ± 0.087.
For MAEIKEKICDYLFGVSDSSALNLAKNIGLTKARDINAVLIDMERQGDVYRQGTTPPIWHLTDK [N14G], the abundance fitness was -0.236 ± 0.047.
With MAEIKEKICDYLFDVSDSSALNLAKNIGLTKARDINAVLIDMERQGDVYRQGTTPPIWHLTDK [N14D], the abundance fitness was -0.312 ± 0.091.
For MAEIKEKICDYLFSVSDSSALNLAKNIGLTKARDINAVLIDMERQGDVYRQGTTPPIWHLTDK [N14S], the abundance fitness is 0.017 ± 0.047.
As to MAEIKEKICDYLFAVSDSSALNLAKNIGLTKARDINAVLIDMERQGDVYRQGTTPPIWHLTDK [N14A], the abundance fitness was -0.014 ± 0.049.
Take MAEIKEKICDYLFEVSDSSALNLAKNIGLTKARDINAVLIDMERQGDVYRQGTTPPIWHLTDK [N14E]: the abundance fitness was 0.102 ± 0.059.
Regarding MAEIKEKICDYLFHVSDSSALNLAKNIGLTKARDINAVLIDMERQGDVYRQGTTPPIWHLTDK [N14H], the abundance fitness was 0.085 ± 0.062.
For MAEIKEKICDYLFTVSDSSALNLAKNIGLTKARDINAVLIDMERQGDVYRQGTTPPIWHLTDK [N14T], the abundance fitness stood at 0.086 ± 0.051.
Take MAEIKEKICDYLFLVSDSSALNLAKNIGLTKARDINAVLIDMERQGDVYRQGTTPPIWHLTDK [N14L]: the abundance fitness is -0.121 ± 0.047.
On to MAEIKEKICDYLFCVSDSSALNLAKNIGLTKARDINAVLIDMERQGDVYRQGTTPPIWHLTDK [N14C], for which the abundance fitness was -0.215 ± 0.072.
The figure for MAEIKEKICDYLFPVSDSSALNLAKNIGLTKARDINAVLIDMERQGDVYRQGTTPPIWHLTDK [N14P] is -0.658 ± 0.087; for MAEIKEKICDYLFKVSDSSALNLAKNIGLTKARDINAVLIDMERQGDVYRQGTTPPIWHLTDK [N14K] it is 0.434 ± 0.062.
As to MAEIKEKICDYLFWVSDSSALNLAKNIGLTKARDINAVLIDMERQGDVYRQGTTPPIWHLTDK [N14W], the abundance fitness is -0.426 ± 0.084.
For the variant MAEIKEKICDYLFYVSDSSALNLAKNIGLTKARDINAVLIDMERQGDVYRQGTTPPIWHLTDK [N14Y], the abundance fitness came out at 0.045 ± 0.096.
The same measure for MAEIKEKICDYLYNVSDSSALNLAKNIGLTKARDINAVLIDMERQGDVYRQGTTPPIWHLTDK [F13Y]: 0.079 ± 0.077; for MAEIKEKICDYLNNVSDSSALNLAKNIGLTKARDINAVLIDMERQGDVYRQGTTPPIWHLTDK [F13N]: 0.366 ± 0.1; for MAEIKEKICDYLMNVSDSSALNLAKNIGLTKARDINAVLIDMERQGDVYRQGTTPPIWHLTDK [F13M]: 0.339 ± 0.067.
Consider MAEIKEKICDYLRNVSDSSALNLAKNIGLTKARDINAVLIDMERQGDVYRQGTTPPIWHLTDK [F13R], for which the abundance fitness was 0.577 ± 0.04.
As for MAEIKEKICDYLINVSDSSALNLAKNIGLTKARDINAVLIDMERQGDVYRQGTTPPIWHLTDK [F13I], the abundance fitness is 0.142 ± 0.09.
Take MAEIKEKICDYLWNVSDSSALNLAKNIGLTKARDINAVLIDMERQGDVYRQGTTPPIWHLTDK [F13W]: the abundance fitness is -0.051 ± 0.055.
Turning to MAEIKEKICDYLSNVSDSSALNLAKNIGLTKARDINAVLIDMERQGDVYRQGTTPPIWHLTDK [F13S], the abundance fitness stood at 0.403 ± 0.046.
